From patent US20220291209, “MOLECULAR TARGET IN CANCER” (The Regents of the University of California, published 2022) come the findings set out here.

Data set [1] has as its target T1, MSI2 (Musashi-2) (UniProt Q96DH6 Q96DH6:1-328). Put plainly: TR-FRET/HTRF; 5 nM MSI2, 1.25 nM RNA; 150 mM NaCl, 25 mM HEPES pH 7.3, 1 mM DTT, 0.05% pluronic F-127, room temperature. As to conditions: tags: His tag, LS Bio G2396; named Biotin5'). (In general: TR-FRET usually uses a lanthanide donor and a delayed reading to cut background.)
Data set [2] deals with T2, U1A (UniProt P09012 P09012:1-282). Nature of the data set: competition; displaces Target-Biotin RNA from U1A; titrated from 1000 nM; IC50 only in figure. The following applies: tags: His tag, LS Bio G19194-10.
T2 sequence (P09012 whole entry, one chain of several): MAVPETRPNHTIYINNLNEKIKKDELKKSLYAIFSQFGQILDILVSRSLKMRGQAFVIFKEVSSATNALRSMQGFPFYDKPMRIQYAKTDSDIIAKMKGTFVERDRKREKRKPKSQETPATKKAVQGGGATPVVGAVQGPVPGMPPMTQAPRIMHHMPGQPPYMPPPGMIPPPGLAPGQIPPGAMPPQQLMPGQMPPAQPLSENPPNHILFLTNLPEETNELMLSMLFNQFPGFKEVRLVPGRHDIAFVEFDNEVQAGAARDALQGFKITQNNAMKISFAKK
The target in data set [3] is T1, MSI2 (Musashi-2). Nature of the data set: competition; displaces NUMB-Biotin RNA from MSI2; titrated from 1000 nM; IC50 only in figure. The following applies: tags: His tag, LS Bio G2396.
Data set [4] deals with T2, U1A. Put plainly: TR-FRET/HTRF; 5 nM U1A, 1.25 nM RNA; 150 mM NaCl, 25 mM HEPES pH 7.3, 1 mM DTT, 0.05% pluronic F-127, room temperature. As to conditions: tags: His tag, LS Bio G19194-10; named Biotin5').

T1 sequence (Q96DH6 whole entry, one chain of several): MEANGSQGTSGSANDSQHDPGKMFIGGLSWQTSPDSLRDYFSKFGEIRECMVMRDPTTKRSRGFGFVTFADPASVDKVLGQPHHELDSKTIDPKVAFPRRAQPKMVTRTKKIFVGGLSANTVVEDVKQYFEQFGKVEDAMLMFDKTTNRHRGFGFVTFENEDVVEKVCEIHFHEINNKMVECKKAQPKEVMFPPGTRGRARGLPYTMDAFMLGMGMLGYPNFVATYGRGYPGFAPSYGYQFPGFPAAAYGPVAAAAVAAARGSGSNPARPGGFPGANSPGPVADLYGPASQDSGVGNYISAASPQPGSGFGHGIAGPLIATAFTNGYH

As for UAGGUAGUAGUUUUA (ssRNA) [NUMB-Biotin RNA probe], the binding result in data set [1] is “binds”.
For the molecule AUUGCACUCCUUUUA (ssRNA) [U1A Target-CTRL RNA (unlabelled)], the binding result in data set [2] was “binds”.
For UAGGUAGUAGUUUUA (ssRNA) [NUMB-CTRL RNA (unlabelled)], the binding result in data set [3] is recorded as “binds”.
Take AUUGCACUCCUUUUA (ssRNA) [U1A Target-Biotin RNA probe]: the binding result in data set [4] was “binds”.
